Results on 1 molecule are retold here after PMC4636054.

For the data set, the target named is LlaBIII (UniProt A0A0M3KL05 1-1578). The data set can be described thus: X-ray crystallography.

B1: LlaBIII 28 bp DNA (dsDNA)
DNA 1: GCTCTAGCTAATAGACTGAGCCGAGGTG
DNA 2: CACCTCGGCTCAGTCTATTAGCTAGAGC
B1: the binding result was “binds”.
